Source: the DeepSol protein solubility set

Experiment: soluble on expression in E. coli; label from the status in PepcDB or PDB records

Sequence	soluble on expression in E. coli
MIQRFIELGEGYSDIYELIALAKANRHRLSGFFVFHTVKKGQAVVSLAIVLHPTDPGDFQPLYICREGIPDPSVKPNKRYELFMETAKELGMDVIHLDVKPSTMFAELDLYYQHLIGIMRMNRFIPPLQ	not soluble
MIQTPYYLIDADRLRQNMAVVDRLRQASGAKALLALKCFATWPAFEHMRDHMDGTTSSSLYELRLGREKFGKETHAYSVAWPDHEIDEAVGYADKIIFNSVGQLARFRNRTGGIARGLRLNPGLSTSGFDLADPARPFSRLGEWSAEKIEAVLPDISGVMIHYNCENADVDLFERQLSEIEGRFGAILDRLDWVSLGGGIHFTGEGYPVDRLAARLKAFAAAHGVQVYLEPGEAAITRSATLEVTVLDLLDNGKQLAIVDSSVEAHMLDLLIYRQSAKVEPDAGDHSYMVCGKSCLAGDIFGEFRFAQPLQVGDRLSIADAAGYTMVKKNWFNGVKMPSIVIREPDGSLRVAREFGYGDYASSLG	not soluble
MIQVENLTKTINNQMILEDISIDIEKGKLTSLIGPNGAGKSTLLSAICRLIRFENGEVKIDGQLMSDYKNNDLSKKISILKQTNHTEMNITVEQLVNFGRFPYSKGRLTKEDHDIVNDALDLLQLQDIRNRNIKSLSGGQRQRAYIAMTIAQDTEYILLDEPLNNLDMKHAVQIMQTLKMLAHKMNKAIVIVLHDINFASCYSDQIVALKNGQLVKSDLKDNVIQSSVLSDLYDMNIQIEHIRNQRICLYFKD	not soluble
MIRIDVVLPAYRPGQGWEREAISRLTALSDSIPDVTFRIFIVPDGSNEGHSDEVRSHWATSPWEVIYCDYAKNRGKGFAVRYGVGQTDAPFVLYTDYDLPFTLDSYKQVIEALLEGADVVISRREPESYGKKIRFKRKMLSDFSHFVNKFFFLPTTDTQGGLKGFSSTGRFIFLQTRIDSFLFDTEFICLAKRKKVCIAVVSGSIRPDISLSVMKAKTILREVYKIPKLIKARWFS	not soluble
MIRSATKEDGQAIARLVLVILKDMELPILEEVSEEQMIDLLAEATAYPTYRYGYQRILVYEHAGEVAGIAVGYPAEDEKIIDEPLREVFKKHGLAEDVRLFIEEETLPNEWYLDTISVDERFRGMGIGSKLLDALPEVAKASGKQALGLNVDFDNPGARKLYASKGFKDVTTMTISGHLYNHMQKEV	not soluble
MIRSIFIPPTSITATSRLFYGMRAYSTKLEKASLQKYLHDPVKVTVIPITDKESFIYYKHTDNLFNSQSRILKAEKWIVEKSAKLWRKLKKSPKSYNKKIVSMVQSLLNSTPWSENSLLTIPSESYILKRIKGEKDKTQEIRLTLKDYTVKAEQVDTQPLHVYYPPGISSPDECLRQMKKLYQEGLIYHKKWTLYCLLGLPLTIPLILIPLIPNVPGFYLSYRAYVNIKAYLGAKHLKSLLESSKQNLEFRELLGYTEVYKRGTSSRTQGNQKESKGAPELLLNKKTLPLILDFLEVHELESDLNKVILQESKSQEKNKI	not soluble
MIRVHSYESMGTFDGPGLRLVVFLQGCNFRCLYCANPDTIDTKGESTETAIDEIVRMAVSQKAFFGKKGGVTFSGGEPTLQAKALIPLFQRLKEQNIHICIDTNGSIWNEEVEELLKWTDLVLLDIKEFNNVRHRQLTERSNEQTIRTAEWLEKNGKPFWLRYVLVPGYSSFEEDIRALGEHFKNYHMIQRVEILPYHTLGVHKYEAMGKEYKLNGIKENTLEQLETAKTLFGEYFNTVYLN	not soluble
MIRVIEKGDKVSLPFSRGILTRSITSVGIDVDLAYSIAIEVQEELVKKGKTIVTKDEIRKLTYQKLIEKGFKEEAKRYIFWRRFRKMKVPLIILLGGPTGVGKSTIATELAFRLGIRSVIGTDSIREVLRKIITPELLPTIHTSTFLAWKELKGTVTDSPIVAGFESQVSAVTVGINAIIERAVREGLNAIIEGIHVVPGFVKVEGEMTFMYMLIARSREDLEARFYERTRYSKRPADYYISHLDEILEIQDYLIRRAKKFNVPVIENVELEETVSKIMEDIMQKTIEIMKGKGLDLLEEP	soluble
